Results published in patent publication US5786191A, “Cloning and expression of complementary DNAs for multiple members of the human cytochrome P450 2C subfamily” (priority 1994, dated 1998).

B1: 2C8: recombinant human P450 2C8 (clones 7b and 7c, Thr^130 Ile^264 variant) expressed in yeast (protein, UniProt P10632 1-490, looked up)
Cytochrome P450 2C8: MEPFVVLVLCLSFMLLFSLWRQSCRRRKLPPGPTPLPIIGNMLQIDVKDICKSFTNFSKVYGPVFTVYFGMNPIVVFHGYEAVKEALIDNGEEFSGRGNSPISQRITKGLGIISSNGKRWKEIRRFSLTTLRNFGMGKRSIEDRVQEEAHCLVEELRKTKASPCDPTFILGCAPCNVICSVVFQKRFDYKDQNFLTLMKRFNENFRILNSPWIQVCNNFPLLIDCFPGTHNKVLKNVALTRSYIREKVKEHQASLDVNNPRDFIDCFLIKMEQEKDNQKSEFNIENLVGTVADLFVAGTETTSTTLRYGLLLLLKHPEVTAKVQEEIDHVIGRHRSPCMQDRSHMPYTDAVVHEIQRYSDLVPTGVPHAVTTDTKFRNYLIPKGTTIMALLTSVLHDDKEFPNPNIFDPGHFLDKNGNFKKSDYFMPFSAGKRICAGEGLARMELFLFLTTILQNFNLKSVDDLKNLNTTAVTKGIVSLPPSYQICFIPV
B2: 2C8 Purified from Human Liver: cytochrome P450 2C8 purified from human liver microsomes (protein, UniProt P10632 1-490, looked up)
Cytochrome P450 2C8: B1 Cytochrome P450 2C8
B3: 2C9: recombinant human P450 2C9, allele not specified in the sentence (protein, UniProt P11712 1-490, looked up)
Cytochrome P450 2C9: MDSLVVLVLCLSCLLLLSLWRQSSGRGKLPPGPTPLPVIGNILQIGIKDISKSLTNLSKVYGPVFTLYFGLKPIVVLHGYEAVKEALIDLGEEFSGRGIFPLAERANRGFGIVFSNGKKWKEIRRFSLMTLRNFGMGKRSIEDRVQEEARCLVEELRKTKASPCDPTFILGCAPCNVICSIIFHKRFDYKDQQFLNLMEKLNENIKILSSPWIQICNNFSPIIDYFPGTHNKLLKNVAFMKSYILEKVKEHQESMDMNNPQDFIDCFLMKMEKEKHNQPSEFTIESLENTAVDLFGAGTETTSTTLRYALLLLLKHPEVTAKVQEEIERVIGRNRSPCMQDRSHMPYTDAVVHEVQRYIDLLPTSLPHAVTCDIKFRNYLIPKGTTILISLTSVLHDNKEFPNPEMFDPHHFLDEGGNFKKSKYFMPFSAGKRICVGEALAGMELFLFLTSILQNFNLKSLVDPKNLDTTPVVNGFASVPPFYQLCFIPV
B4: 2C9 Purified from Human Liver: cytochrome P450 2C9 purified from human liver microsomes (protein, UniProt P11712 1-490, looked up)
Cytochrome P450 2C9: B3 Cytochrome P450 2C9
B5: 2C9-Ile^359 (65): recombinant human P450 2C9 allelic variant, clone 65 (protein, UniProt P11712 1-490, looked up)
Cytochrome P450 2C9: B3 Cytochrome P450 2C9
B6: 2C18-Thr^385 (29c): recombinant 2C18 allelic variant 29c (Thr 385) in yeast microsomes; Table III does not state residue 2 (protein, UniProt P33260 26-490, looked up)
Cytochrome P450 2C18: RGRLPSGPTPLPIIGNILQLDVKDMSKSLTNFSKVYGPVFTVYFGLKPIVVLHGYEAVKEALIDHGEEFSGRGSFPVAEKVNKGLGILFSNGKRWKEIRRFCLMTLRNFGMGKRSIEDRVQEEARCLVEELRKTNASPCDPTFILGCAPCNVICSVIFHDRFDYKDQRFLNLMEKFNENLRILSSPWIQVCNNFPALIDYLPGSHNKIAENFAYIKSYVLERIKEHQESLDMNSARDFIDCFLIKMEQEKHNQQSEFTVESLIATVTDMFGAGTETTSTTLRYGLLLLLKYPEVTAKVQEEIECVVGRNRSPCMQDRSHMPYTDAVVHEIQRYIDLLPTNLPHAVTCDVKFKNYLIPKGTTIITSLTSVLHNDKEFPNPEMFDPGHFLDKSGNFKKSDYFMPFSAGKRMCMGEGLARMELFLFLTTILQNFNLKSQVDPKDIDITPIANAFGRVPPLYQLCFIPV
B7: 2C18-Asp^2 Thr^385 (29c-1a): recombinant human P450 2C18 allelic variant 29c with correct Asp at position 2, Thr at 385 (protein, UniProt P33260 26-490, looked up)
Cytochrome P450 2C18: B6 Cytochrome P450 2C18
B8: 2C19: human cytochrome P450 2C19 polypeptide, clone 11a, SEQ ID NO:1, expressed recombinantly in yeast (protein)
chain: MDPFVVLVLCLSCLLLLSIWRQSSGRGKLPPGPTPLPVIGNILQIDIKDVSKSLTNLSKIYGPVFTLYFGLERMVVLHGYEVVKEALIDLGEEFSGRGHFPLAERANRGFGIVFSNGKRWKEIRRFSLMTLRNFGMGKRSIEDRVQEEARCLVEELRKTKASPCDPTFILGCAPCNVICSIIFQKRFDYKDQQFLNLMEKLNENIRIVSTPWIQICNNFPTIIDYFPGTHNKLLKNLAFMESDILEKVKEHQESMDINNPRDFIDCFLIKMEKEKQNQQSEFTIENLVITAADLLGAGTETTSTTLRYALLLLLKHPEVTAKVQEEIERVIGRNRSPCMQDRGHMPYTDAVVHEVQRYIDLIPTSLPHAVTCDVKFRNYLIPKGTTILTSLTSVLHDNKEFPNPEMFDPRHFLDEGGNFKKSNYFMPFSAGKRICVGEGLARMELFLFLTFILQNFNLKSLIDPKDLDTTPVVNGFASVPPFYQLCFIPV

Legend:
Format in all cases: biochemical
[1] = Mephenytoin 4'-hydroxylase assay, purified recombinant P450s in reconstituted system, S-enantiomer; details: for R/S Ratio of mephenytoin 4'-hydroxylase activity: purified P450s (Table IV); for Mephenytoin 4'-Hydroxylase Activity, S: purified P450s, triplicate, means ± SE, blank not subtracted
Procedure: (§1) Purified or recombinant yeast microsomes (10-50 pmol) were preincubated with dilauroylphosphatidylcholine (15 μg per 50 pmol P450), P450 reductase (500 U per 50 mol P450), and human cytochrome b5 (2:1 molar ratio when added). The reconstituted mixture was preincubated for 5 min at 37° C., and then placed on ice. […] The mixture was then incubated at 37° with shaking for 3 min, and the reaction started with the addition of 2 mM NADPH and terminated after 30 min with an equal volume of methanol. […] Reaction volumes were generally 0.25 ml except when the volume of recombinant purified cytochrome or yeast microsomes was greater than 50 μl. In these cases, the volume was increased to 0.5 ml to limit the volume of glycerol from the purified preparation to <4% of the final volume.
(§2) At the end of the incubation period, the reactions were terminated with an equal volume of methanol. The incubation mixture was centrifuged at 10,000 g for 10 min and an aliquot assayed directly using HPLC without extraction. Samples with particularly low activity were concentrated by lyophilization and redissolved in a small volume of methanol:water (1:1) before assay. The HPLC system consisted of a reverse phase C18 (10 μm) Versapak, 300 mm×4.1 mm column (Altech Associates, Deerfield, Ill.) using an isocratic solvent consisting of methanol:water (45:55) with a flow rate was kept of 1 ml/min for 25 min.

[2] = Mephenytoin 4'-hydroxylase assay, recombinant human CYP2C yeast microsomes, R-enantiomer; details: yeast microsomes + P450 reductase, phospholipid, cytochrome b5 2:1; 0.4 mM substrate; 37° C., 30 min; liver microsomes unfortified, phosphate buffer; means ± SE
Procedure: as §1, §2

[3] = Mephenytoin 4'-hydroxylase assay, purified recombinant P450s in reconstituted system, R-enantiomer; details: triplicate, means ± SE, blank not subtracted
Procedure: as §1, §2

[4] = Tolbutamide hydroxylase assay, purified reconstituted P450s; details: blank (22 ± 5) subtracted, means ± SE
Procedure: Tolbutamide hydroxylase activity was measured according to Knodell et al., J. Pharmacol. Exper. Ther. 241:1112-1119 (1987), with several modifications. Yeast microsomes (1 mg protein) were preincubated with 300 pmol hamster P450 reductase in 0.2 ml of the incubation buffer (below) for 3 min at 37° C. The reaction was then placed on ice and incubated in 0.2 ml of 50 mM HEPES buffer (pH 7.4) containing 1.5 mM MgCl2, 0.1 mM EDTA in a final volume of 1 ml and 1 mM sodium tolbutamide. The reaction was initiated with 0.5 mM NADPH. Human liver microsomes (0.22 mg protein) were incubated without reductase. Incubations with reconstituted recombinant P450s contained 50 pmol purified P450 enzyme, 150 pmol P450 reductase, and 15 μg dilauroylphosphatidylcholine, and were performed in 100 mM potassium phosphate buffer (pH 7.4). Reactions were terminated after 60 min at 37° C. by the addition of 50 μl of 4N HCl, followed by extraction with 3 ml of water-saturated ethyl acetate. The ethyl acetate extracts were dried under nitrogen at 40° C., the residue resolubilized in 200 μl methanol, and 4-hydroxytolbutamide then assayed using HPLC by injecting 50 μl of the solubilized extract onto a μBONDAPAK C18 column (4.6×300 mm) using 0.05% phosphoric acid, pH 2.6: acetonitrile (6:4, v/v) as the mobile phase with a flow rate of 1 ml/min. The column eluate was monitored at 230 nm and rates of product formation were determined from standard curves prepared by adding varying amounts of 4-hydroxytolbutamide to incubations conducted without NADPH. […] Samples were analyzed in triplicate.

[5] = Mephenytoin 4'-hydroxylase assay, recombinant human CYP2C yeast microsomes, S-enantiomer; details: for R/S Ratio of mephenytoin 4'-hydroxylase activity: recombinant yeast microsomes (Table III); for Mephenytoin 4'-Hydroxylase Activity, S: yeast microsomes + P450 reductase, phospholipid, cytochrome b5 2:1, 37° C., 30 min, liver microsomes unfortified, phosphate buffer
Procedure: as §1, §2

[6] = Tolbutamide hydroxylase assay, recombinant human CYP2C yeast microsomes; details: for Tolbutamide Hydroxylase Activity per mg protein: 1 mg yeast microsomal protein + P450 reductase, or 0.2 mg liver microsomal protein without reductase; for Tolbutamide Hydroxylase Activity per mg protein / Tolbutamide Hydroxylase Activity per nmol P450: means ± SE; for Tolbutamide Hydroxylase Activity per nmol P450: adjusted for P450 content
Procedure: Yeast microsomes (1 mg protein) were preincubated with 300 pmol hamster P450 reductase in 0.2 ml of the incubation buffer (below) for 3 min at 37° C. The reaction was then placed on ice and incubated in 0.2 ml of 50 mM HEPES buffer (pH 7.4) containing 1.5 mM MgCl2, 0.1 mM EDTA in a final volume of 1 ml and 1 mM sodium tolbutamide. The reaction was initiated with 0.5 mM NADPH. Human liver microsomes (0.22 mg protein) were incubated without reductase. Incubations with reconstituted recombinant P450s contained 50 pmol purified P450 enzyme, 150 pmol P450 reductase, and 15 μg dilauroylphosphatidylcholine, and were performed in 100 mM potassium phosphate buffer (pH 7.4). Reactions were terminated after 60 min at 37° C. by the addition of 50 μl of 4N HCl, followed by extraction with 3 ml of water-saturated ethyl acetate. […] The column eluate was monitored at 230 nm and rates of product formation were determined from standard curves prepared by adding varying amounts of 4-hydroxytolbutamide to incubations conducted without NADPH. […] Samples were analyzed in triplicate.

Row | Molecule | R/S Ratio of mephenytoin 4'-hydroxylase activity [1] | Mephenytoin 4'-Hydroxylase Activity, S ([1]; reconstituted system) [nmol/min/nmol P450] | Mephenytoin 4'-Hydroxylase Activity, R [2] [nmol/min/nmol P450] | Mephenytoin 4'-Hydroxylase Activity, R [3] [nmol/min/nmol P450] | Tolbutamide Hydroxylase Activity [4] | R/S Ratio of mephenytoin 4'-hydroxylase activity [5] | Mephenytoin 4'-Hydroxylase Activity, S ([5]; 0.4 mM substrate, means ± SE) | Tolbutamide Hydroxylase Activity per mg protein [6] [nmol/min/mg protein] | Tolbutamide Hydroxylase Activity per nmol P450 [6] [nmol/min/nmol P450] | Turnover number of recombinant 2C9 relative to 2C9 purified from human liver ([1]; S-mephenytoin 4'-hydroxylation) | Tolbutamide turnover number of Ile^359 allele relative to Leu^359 allele of 2C9 ([6]; recombinant microsomes adjusted for P450 content) [fold] | Mephenytoin 4'-Hydroxylase Activity, S, no b5 ([5]; yeast microsomes without cytochrome b5, 0.4 mM substrate, means ± SE) [nmol/min/nmol P450] | S-mephenytoin 4'-hydroxylation turnover relative to human liver microsomes ([1]; fold higher than human liver microsomes) | S-mephenytoin 4'-hydroxylation turnover relative to recombinant 2C9, 2C18 or 2C8 ([1]; purified, reconstituted system) | S-mephenytoin 4'-hydroxylase turnover relative to P450MP purified from human liver ([1]; vs literature value of Srivastava et al.) | Rate of S-hydroxylation relative to R-hydroxylation of mephenytoin ([5]; stereospecificity, yeast microsomes) | Mephenytoin 4'-Hydroxylase Activity, S ([5]; 0.4 mM substrate, means ± SE, listed as 2C19 (11a)) [nmol/min/nmol P450]
1 | B1 | 0.4 | 0.057 ± 0.009 | 0.016 ± 0.001 | 0.023 ± 0.004 | 12 ± 4 pmol/min/nmol P450 | 0.4 | 0.037 ± 0.001 nmol/min/nmol P450 | 8.5 ± 0.2 | 0.11 ± 0.003 | – | – | – | – | – | – | – | –
2 | B2 | 1.6 | 0.032 ± 0.003 | – | 0.051 ± 0.030 | – | – | – | – | – | – | – | – | – | – | – | – | –
3 | B3 | – | – | – | – | – | – | 0.02 nmol/min/nmol P450 | – | – | ~ 100 times | – | – | – | – | – | – | –
4 | B4 | 1.6 | 0.033 ± 0.001 | – | 0.051 ± 0.007 | 109 ± 16 pmol/min/nmol P450 | – | – | – | – | – | – | – | – | – | – | – | –
5 | B5 | 0.77 | 0.081 ± 0.006 | 0.041 ± 0.005 | 0.063 ± 0.003 | 122 + 29 pmol/min/nmol P450 | 0.9 | 0.043 ± 0.000 nmol/min/nmol P450 | 169.8 ± 7.4 | 3.4 ± 0.15 | – | 3 | – | – | – | – | – | –
6 | B6 | – | – | 0.054 ± 0.003 | – | – | 1.3 | 0.042 ± 0.004 nmol/min/nmol P450 | – | – | – | – | 0.034 ± 0.008 | – | – | – | – | –
7 | B7 | 1.3 | 0.116 ± 0.010 | – | 0.147 ± 0.025 | – | – | – | 9.3 ± 0.7 | 0.19 ± 0.02 | – | – | – | – | – | – | – | –
8 | B8 | 0.03 | 6.17 ± 0.24 | 0.014 ± 0.02 | 0.19 ± 0.04 | – | 0.03 | ~ 5 nmol/min/nmol P450 | 18.4 ± 2.4 | – | – | – | – | at least 10 times | 50-100 times | ~ 30 times | at least 30 fold | 4.6 ± 0.3
